Results on eight molecules are retold here after patent US20240052045A1 (VIB VZW, published 2024).

Assay [1] concerns the target T1, human CCR8 (human, UniProt P51685 1-355).
T1 construct: Expressed on HEK293, HEK293T or CHO-K1 cells, stably or transiently transfected; also called hCCR8
As to the kind of experiment: flow cytometry competition with parental VHH-67. An excerpt: (§1) Multiple His6 tagged VHH variants were thus generated and evaluated by flow cytometry for their ability to compete for binding to hCCR8 with their FLAG3-His6 tagged parental counterpart (VHH-57, VHH-64 or VHH-67).
For orientation: A flow cytometer gives signals particle by particle.

For assay [2], the target named is T2, murine CCR8 (mouse, UniProt P56484 1-353).
T2 construct: Transiently expressed on HEK293/HEK293T cells or endogenously expressed on BW5147 cells; also called mouse CCR8; mCCR8
T2 sequence: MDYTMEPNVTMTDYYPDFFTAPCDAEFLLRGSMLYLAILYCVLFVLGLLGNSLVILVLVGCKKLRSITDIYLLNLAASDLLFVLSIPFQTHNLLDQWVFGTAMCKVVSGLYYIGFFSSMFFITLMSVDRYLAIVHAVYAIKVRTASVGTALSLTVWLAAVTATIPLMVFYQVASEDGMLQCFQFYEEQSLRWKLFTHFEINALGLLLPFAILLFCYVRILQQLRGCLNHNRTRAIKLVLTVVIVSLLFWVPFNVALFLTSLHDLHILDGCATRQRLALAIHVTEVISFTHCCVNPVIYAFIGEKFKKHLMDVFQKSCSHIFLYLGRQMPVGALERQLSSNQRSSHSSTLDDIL
Description: flow cytometry on HEK293T cells transiently transfected with mouse CCR8.

The target in assay [3] is T1, human CCR8. Description: flow cytometry on HEK293 cells with hCCR8 and chimeric/deleted variants.
Assay [4] concerns the target T1, human CCR8. Description: flow cytometry competition with parental VHH-57.
From the text: as §1

Assay [5] deals with T1, human CCR8. Description: competitive binding, flow cytometry.
For assay [6], the target named is T2, murine CCR8. Description: flow cytometry on cells transfected with mouse CCR8.
The target of assay [7] is T1, human CCR8. As to the kind of experiment: flow cytometry competition with parental VHH-64.
From the text: as §1

T1 sequence (P51685 whole entry): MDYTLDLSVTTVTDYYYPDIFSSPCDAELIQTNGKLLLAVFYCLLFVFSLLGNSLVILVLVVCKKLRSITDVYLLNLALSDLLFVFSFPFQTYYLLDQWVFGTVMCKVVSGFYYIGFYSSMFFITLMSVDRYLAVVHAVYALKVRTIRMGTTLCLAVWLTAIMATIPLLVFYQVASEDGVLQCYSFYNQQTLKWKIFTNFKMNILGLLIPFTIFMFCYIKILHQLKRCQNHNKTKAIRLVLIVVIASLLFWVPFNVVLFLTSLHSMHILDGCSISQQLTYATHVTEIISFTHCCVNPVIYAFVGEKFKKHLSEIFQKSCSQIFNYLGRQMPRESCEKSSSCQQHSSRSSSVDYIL

B1: VHH-120 (VHH)
VHH: DVQLVESGGGLVQPGGSLRLSCTVSGSIFSLRTVGWYRQAPGKQRELVATISAGGATDYADSVKGRFTISRDNAKNTVYLQMNSLRPEDTAVYYCYAQDSYKIYKSRYTQDYWGQGTLVTVSS
notes: also called VHH-67 with mutations E1D, V65G, V69I, G74A; not shown: C-terminal His6 tag (no FLAG3)
For B1, the binding result in the assay with human CCR8 [1] is “binds”.

B2: VHH-121 (VHH)
VHH: DVQLVESGGGLVQPGGSLRLSCTVSGSIFSLRTVGWYRQAPGKQRELVATISAGGATDYADSVKGRFTISRDNAKNTVYLQMNSLRPEDTAVYYCYAQQSYKIYKSRYTQDYWGQGTLVTVSS
notes: also called VHH-67 with E1D, V65G, V69I, G74A, D99Q; not shown: C-terminal His6 tag (no FLAG3)
Regarding B2, the binding result in the assay with human CCR8 [1] is on record as “binds”.

B3: VHH-67 (VHH)
VHH: EVQLVESGGGLVQPGGSLRLSCTVSGSIFSLRTVGWYRQAPGKQRELVATISAGGATDYADSVKVRFTVSRDNGKNTVYLQMNSLRPEDTAVYYCYAQDSYKIYKSRYTQDYWGQGTLVTVSS
notes: Monovalent VHH purified from E. coli periplasm with C-terminal FLAG3 and His6 tags; not shown: C-terminal FLAG3 and His6 tags
In the case of B3, the binding result in the assay with murine CCR8 [2] and in the assay with human CCR8 [3] was “binds” each time.

B4: VHH-122 (VHH)
VHH: DVQLVESGGGLVQPGGSLRLSCTVSGSIFSLRTVGWYRQAPGKQRELVATISAGGATDYADSVKGRFTISRDNAKNTVYLQMNSLRPEDTAVYYCYAQDTYKIYKSRYTQDYWGQGTLVTVSS
notes: also called VHH-67 with E1D, V65G, V69I, G74A, S100T; not shown: C-terminal His6 tag (no FLAG3)
Consider B4, for which the binding result with human CCR8 [1] was “binds”.

B5: VHH-57 (VHH)
VHH: EVQLVESGGGLVQPGGSLRLSCTASGNIFSLLDMKWYRQAPGKQRELVADITSGGSTNYADPVKGRFTISRDNAKNTVYLQMNSLRPEDTAVYYCNAAPYYWGAYRRQESWGQGTLVTVSS
notes: as for B3
In the case of B5, the binding result with murine CCR8 [2] and with human CCR8 [3] was “binds” throughout.

B6: VHH-119 (VHH)
VHH: DVQLVESGGGLVQPGGSLRLSCTASGSIFSLLDMKWYRQAPGKQRELVADITSGGSTNYADSVKGRFTISRDNAKNTVYLQMNSLRPEDTAVYYCNAAPYYWGAYRRQESWGQGTLVTVSS
notes: also called VHH-57 with mutations E1D, N27S, P62S; not shown: C-terminal His6 tag (no FLAG3)
As to B6, the binding result in the assay with human CCR8 [4] is on record as “binds”.

B7: VHH-64 (VHH)
VHH: EVQLVESGGGLVQPGGSLRLSCAVSGGIRSIIPAGWYRQVPGKQRELVAAISTAGSADYADSVKGRFTISRDNTKNTAYLQMNSLRPEDTAVYYCNGRQTGWRTRVDYWGQGTLVTVSS
notes: as for B3
In the case of B7, the binding result with human CCR8 [5] and with murine CCR8 [6] was “binds” throughout.

B8: VHH-84 (VHH)
VHH: DVQLVESGGGLVQPGGSLRLSCAVSGGIRSIIPAGWYRQAPGKQRELVAAISTAGSADYADSVKGRFTISRDNAKNTVYLQMNSLRPEDTAVYYCNGRQTGWRTRVDYWGQGTLVTVSS
notes: also called VHH-64 with mutations E1D, V40A, T74A, A78V; not shown: C-terminal His6 tag (no FLAG3)
As for B8, the binding result in the assay with human CCR8 [7] was “binds”.
